Laboratory results published in US20250018014A1, “METHOD FOR TREATING AND/OR PREVENTING REGNASE-1-RELATED DISEASE” (OSAKA UNIVERSITY, priority 2018, published 2025).
Where two headings read alike, the source gives them in different places. Positions of bridges follow the written chain, without caps; N, C: chain ends. Non-standard residues stand in square brackets, D forms with d. *: point of attachment. NMeA = CN[C@@H](C)C(=O)O; Pyrrolidide = C1CCN(*)C1; dNMeA = CN[C@H](C)C(=O)O

T1: C-terminal human Regnase-1 (amino acids 301 to 599) with N-terminal FLAG tag and C-terminal BirA recognition … (human, UniProt Q5D1E8 301-599)
T1 sequence: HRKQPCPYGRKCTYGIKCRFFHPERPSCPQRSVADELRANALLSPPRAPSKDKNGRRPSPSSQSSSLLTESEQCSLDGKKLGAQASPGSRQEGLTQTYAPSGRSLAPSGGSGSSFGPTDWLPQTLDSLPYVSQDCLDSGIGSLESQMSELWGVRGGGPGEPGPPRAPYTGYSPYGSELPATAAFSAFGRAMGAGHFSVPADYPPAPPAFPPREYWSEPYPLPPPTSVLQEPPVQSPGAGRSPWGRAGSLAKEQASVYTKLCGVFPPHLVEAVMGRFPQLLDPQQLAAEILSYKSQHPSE

T2: C-terminal domain-deleted human Regnase-1 (amino acids 1 to 546) with N-terminal FLAG tag and C-terminal BirA … (human, UniProt Q5D1E8 1-546)
T2 sequence: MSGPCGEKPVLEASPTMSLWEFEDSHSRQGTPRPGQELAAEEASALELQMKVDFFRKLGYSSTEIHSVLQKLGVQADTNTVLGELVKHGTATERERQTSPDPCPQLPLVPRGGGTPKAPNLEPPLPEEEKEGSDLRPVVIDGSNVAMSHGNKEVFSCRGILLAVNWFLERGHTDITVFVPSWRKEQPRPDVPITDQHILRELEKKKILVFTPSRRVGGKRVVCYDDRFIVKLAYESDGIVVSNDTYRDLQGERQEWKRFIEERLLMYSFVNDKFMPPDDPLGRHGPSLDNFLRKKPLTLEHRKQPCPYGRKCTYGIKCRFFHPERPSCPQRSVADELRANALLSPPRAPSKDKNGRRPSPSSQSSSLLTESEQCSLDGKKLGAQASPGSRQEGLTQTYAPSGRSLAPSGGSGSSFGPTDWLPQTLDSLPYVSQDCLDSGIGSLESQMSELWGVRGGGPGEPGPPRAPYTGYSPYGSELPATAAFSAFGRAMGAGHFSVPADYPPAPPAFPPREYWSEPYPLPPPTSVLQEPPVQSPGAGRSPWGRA

T3: full-length human Regnase-1 with a FLAG tag on the N-terminal side and a biotin ligase BirA recognition … (human, UniProt Q5D1E8 1-599, biotinylated at the BirA recognition sequence when required)
T3 sequence: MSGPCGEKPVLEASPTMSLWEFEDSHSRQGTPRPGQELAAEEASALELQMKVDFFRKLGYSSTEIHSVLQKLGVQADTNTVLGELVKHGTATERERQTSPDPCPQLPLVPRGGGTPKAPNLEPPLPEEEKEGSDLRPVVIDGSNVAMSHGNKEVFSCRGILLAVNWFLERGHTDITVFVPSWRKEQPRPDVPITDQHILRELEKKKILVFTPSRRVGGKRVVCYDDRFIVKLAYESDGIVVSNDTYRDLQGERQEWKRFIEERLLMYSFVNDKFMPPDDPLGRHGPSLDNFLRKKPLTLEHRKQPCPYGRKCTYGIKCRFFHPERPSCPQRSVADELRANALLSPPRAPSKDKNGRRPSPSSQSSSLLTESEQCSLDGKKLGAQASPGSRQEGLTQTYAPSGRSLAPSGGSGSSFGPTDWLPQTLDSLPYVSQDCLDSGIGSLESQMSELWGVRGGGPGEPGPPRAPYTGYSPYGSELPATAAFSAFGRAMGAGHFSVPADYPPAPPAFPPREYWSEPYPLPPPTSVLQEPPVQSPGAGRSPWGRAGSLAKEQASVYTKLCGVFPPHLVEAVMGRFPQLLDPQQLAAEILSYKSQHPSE


Tests used:
Assay in all cases: cell-based or functional assay
[1] = molecular target: T1, C-terminal human Regnase-1 (amino acids …)
[2] = molecular target: T2, C-terminal domain-deleted human …
[3] = molecular target: T3, full-length human Regnase-1 with a FLAG …
[4] = molecular target: T1, C-terminal human Regnase-1 (amino acids …); remark: listed apart in the source
[5] = molecular target: T2, C-terminal domain-deleted human …; remark: listed apart in the source
[6] = molecular target: T3, full-length human Regnase-1 with a FLAG …; remark: listed apart in the source
[7] = molecular target: T2, C-terminal domain-deleted human …; remark: listed apart in the source
[8] = molecular target: T3, full-length human Regnase-1 with a FLAG …; remark: listed apart in the source

Binder	50% inhibition concentration, Regnase-1 phosphorylation by TBK1 (AlphaScreen) [1]	50% inhibition concentration, Regnase-1 phosphorylation by TBK1 (AlphaScreen) [2]	50% inhibition concentration, Regnase-1 phosphorylation by TBK1 (AlphaScreen) [3]	50% inhibition concentration, Regnase-1 phosphorylation by IKKβ (AlphaScreen) [4]	50% inhibition concentration, Regnase-1 phosphorylation by IKKβ (AlphaScreen) [5]	50% inhibition concentration, Regnase-1 phosphorylation by IKKβ (AlphaScreen) [6]	50% inhibition concentration, Regnase-1 phosphorylation by IKKβ (AlphaScreen) [7]	50% inhibition concentration, Regnase-1 phosphorylation by TBK1 (AlphaScreen) [7]	50% inhibition concentration, Regnase-1 phosphorylation by IKKβ (AlphaScreen) [8]	50% inhibition concentration, Regnase-1 phosphorylation by TBK1 (AlphaScreen) [8]
XPNSSWFKIWD (HELM PEPTIDE1{[C[C@H](C(=O)[*:2])N(C)[*:1]].P.N.S.S.W.F.K.I.W.D.[C1CCN([*:1])C1]}$PEPTIDE1,PEPTIDE1,1:R1-11:R3$$$V2.0; SMILES CC[C@H](C)[C@@H]1NC(=O)[C@H](CCCCN)NC(=O)[C@H](Cc2ccccc2)NC(=O)[C@H](Cc2c[nH]c3ccccc23)NC(=O)[C@H](CO)NC(=O)[C@H](CO)NC(=O)[C@H](CC(N)=O)NC(=O)[C@@H]2CCCN2C(=O)[C@@H](C)N(C)C(=O)C[C@@H](C(=O)N2CCCC2)NC(=O)[C@H](Cc2c[nH]c3ccccc23)NC1=O) [PP6]	16.8 µM	14.5 µM	13.1 µM	17.5 µM	20.3 µM	17 µM	20.3 µM	14.5 µM	17 µM	13.1 µM
XGYANSWYNIWD (HELM PEPTIDE1{[meA].G.Y.A.N.S.W.Y.N.I.W.D.[C1CCN([*:1])C1]}$PEPTIDE1,PEPTIDE1,1:R1-12:R3$$$V2.0; SMILES CC[C@H](C)[C@@H]1NC(=O)[C@H](CC(N)=O)NC(=O)[C@H](Cc2ccc(O)cc2)NC(=O)[C@H](Cc2c[nH]c3ccccc23)NC(=O)[C@H](CO)NC(=O)[C@H](CC(N)=O)NC(=O)[C@H](C)NC(=O)[C@H](Cc2ccc(O)cc2)NC(=O)CNC(=O)[C@H](C)N(C)C(=O)C[C@@H](C(=O)N2CCCC2)NC(=O)[C@H](Cc2c[nH]c3ccccc23)NC1=O) [PP2]	22.4 µM	17.6 µM	21.7 µM	18.5 µM	14 µM	16.6 µM	14 µM	17.6 µM	16.6 µM	21.7 µM
XTSWYKVNWGQD (HELM PEPTIDE1{[meA].T.S.W.Y.K.V.N.W.G.Q.D.[C1CCN([*:1])C1]}$PEPTIDE1,PEPTIDE1,1:R1-12:R3$$$V2.0; SMILES CC(C)[C@@H]1NC(=O)[C@H](CCCCN)NC(=O)[C@H](Cc2ccc(O)cc2)NC(=O)[C@H](Cc2c[nH]c3ccccc23)NC(=O)[C@H](CO)NC(=O)[C@H]([C@@H](C)O)NC(=O)[C@H](C)N(C)C(=O)C[C@@H](C(=O)N2CCCC2)NC(=O)[C@H](CCC(N)=O)NC(=O)CNC(=O)[C@H](Cc2c[nH]c3ccccc23)NC(=O)[C@H](CC(N)=O)NC1=O) [PP1]	> 62.1 µM	> 62.1 µM	54.5 µM	> 62.1 µM	> 62.1 µM	28.1 µM	> 62.1 µM	> 62.1 µM	28.1 µM	54.5 µM
[dNMeA]KHASAWYRIWD-Pyrrolidide (lactam N-12) [PP3]	7.1 µM	5.7 µM	3.9 µM	6.8 µM	8.3 µM	4.6 µM	8.3 µM	5.7 µM	4.6 µM	3.9 µM
[NMeA]YIWDFFGDLD-Pyrrolidide (lactam N-11) [PP4]	35.9 µM	44.9 µM	61.9 µM	12.8 µM	8.3 µM	19.5 µM	8.3 µM	44.9 µM	19.5 µM	61.9 µM
XHSNAWYNIWD (HELM PEPTIDE1{[meA].H.S.N.A.W.Y.N.I.W.D.[C1CCN([*:1])C1]}$PEPTIDE1,PEPTIDE1,1:R1-11:R3$$$V2.0; SMILES CC[C@H](C)[C@@H]1NC(=O)[C@H](CC(N)=O)NC(=O)[C@H](Cc2ccc(O)cc2)NC(=O)[C@H](Cc2c[nH]c3ccccc23)NC(=O)[C@H](C)NC(=O)[C@H](CC(N)=O)NC(=O)[C@H](CO)NC(=O)[C@H](Cc2c[nH]cn2)NC(=O)[C@H](C)N(C)C(=O)C[C@@H](C(=O)N2CCCC2)NC(=O)[C@H](Cc2c[nH]c3ccccc23)NC1=O) [PP5]	40.4 µM	19.1 µM	24.2 µM	31.3 µM	20.4 µM	23.6 µM	20.4 µM	19.1 µM	23.6 µM	24.2 µM
